Laboratory results: doi:10.1101/2020.10.08.20209114 (medRxiv, 2020)

Biological target: SARS-CoV-2 RBD protein (SARS-CoV-2 (Wuhan-Hu-1, NC_045512), UniProt P0DTC2)
Assay: BLI

Binder	Kd [nM]
monoclonal antibody 7F3 (antibody, V domains shown) VH: EVQLVESGGGLVKPGRSLRLSCTASGFTFGDYAMSWFRQAPGKGLEWVGFIRSKAYGGTTEYAASVKGRFTISRDDSKSIAYLQMNSLKTEDTAVYYCTRDRYARYDILTGLSPAGADYFYYAMDVWGQGTTVTVSS VL: EIVLTQSPATLSLSPGERATLSCRASQSVSSYLAWYQQKPGQAPRLLIYDASNRATGIPARFSGSGSGTDFTLTISSLEPEDFAVYYCQQRSNWPQYTFGQGTKLEIK	0.69 ± 0.03
monoclonal antibody 4L12 (antibody, V domains shown) VH: EVQLVESGGGLVQPGGSLRLSCAASGITVSSNYMNWVRQAPGRGLEWVSLLYSGGSTYYADSVKGRFTISRDNSKNTLYLQMNSLRAEDTAVYYCARDLITYGMDVWGQGTTVTVSS VL: AIQLTQSPSSLSASVGDRVTITCRASQGISSYLAWYQQKPGKAPKLLIYAASTLQSGVPSRFSGSGSGTDFTLTISSLQPEDFATYYCQQLNSYPPLTFGGGTKVEIK	1.49 ± 0.06
